Drawing on PMC6692507, this text covers reduction of the SecA-uL23 cross-linking product with SRP equimolar to SecA for one substance.

For assay [1], the target named is uL23(52pBpa), in 70S ribosomes, RNCs or living cells (E. coli) (UniProt P0ADZ0). Description: cross-linking; competition: SecA (2.5 uM) premixed with Ffh/SRP (0.5, 2.5, 12.5 uM) in buffer C, 10 min 30°C with 0.5 uM 70S ribosomes bearing pBpa at position 71 or 52 of uL23, UV 20 min on ice; anti-SecA and anti-Ffh blots.
Assay [2] deals with uL23(71pBpa), in 70S ribosomes, RNCs or living cells (E. coli) (UniProt P0ADZ0). The description is as above.

Take “Ffh, the protein component of the bacterial signal recognition particle (SRP), purified (from UniProt P0AGD7 1-453) (natural protein)”: the reduction of the SecA-uL23 cross-linking product with SRP equimolar to SecA in assay [1] and in assay [2] was 50% in each case.
